Measured values reported in patent US20120100561.

What was measured:
[1] = target: Myc-RhoC (N-terminal Myc epitope-tagged full-length human RhoC)
[2] = target: T1, phosphoinositide-dependent kinase-1 (PDK1), O15530
T1 chain: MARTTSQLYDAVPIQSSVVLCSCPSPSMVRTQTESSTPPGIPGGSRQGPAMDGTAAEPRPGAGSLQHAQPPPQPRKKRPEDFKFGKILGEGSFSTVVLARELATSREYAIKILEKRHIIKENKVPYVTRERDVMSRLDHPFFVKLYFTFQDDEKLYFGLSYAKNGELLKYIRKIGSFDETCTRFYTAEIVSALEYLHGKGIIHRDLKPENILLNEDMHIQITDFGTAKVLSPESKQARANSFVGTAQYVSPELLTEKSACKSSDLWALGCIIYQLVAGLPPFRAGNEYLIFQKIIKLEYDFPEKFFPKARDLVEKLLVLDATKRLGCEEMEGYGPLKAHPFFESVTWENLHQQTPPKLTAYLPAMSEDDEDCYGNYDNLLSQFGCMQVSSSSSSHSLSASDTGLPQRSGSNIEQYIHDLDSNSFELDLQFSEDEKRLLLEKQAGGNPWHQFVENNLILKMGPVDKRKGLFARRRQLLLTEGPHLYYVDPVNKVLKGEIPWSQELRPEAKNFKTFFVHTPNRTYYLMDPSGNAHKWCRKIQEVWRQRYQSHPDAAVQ

Sequence of Myc-RhoC (N-terminal Myc epitope-tagged full-length human RhoC) (chain, as listed by the source): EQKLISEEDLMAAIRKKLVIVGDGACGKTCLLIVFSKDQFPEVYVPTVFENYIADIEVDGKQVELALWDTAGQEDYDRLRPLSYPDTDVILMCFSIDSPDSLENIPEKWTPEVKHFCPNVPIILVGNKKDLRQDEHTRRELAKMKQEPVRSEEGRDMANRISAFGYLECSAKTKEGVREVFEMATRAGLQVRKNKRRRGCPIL

B1: Flag-PKN3 wt (N-terminal Flag epitope-tagged full-length kinase active human PKN3) (protein)
chain: DYKDDDKMEEGAPRQPGPSQWPPEDEKEVIRRAIQKELKIKEGVENLRRVATDRRHLGHVQQLLRSSNRRLEQLHGELRELHARILLPGPGPGPAEPVASGPRPWAEQLRARHLEALRRQLHVELKVKQGAENMTHTCASGTPKERKLLAAAQQMLRDSQLKVALLRMKISSLEASGSPEPGPELLAEELQHRLHVEAAVAEGAKNVVKLLSSRRTQDRKALAEAQAQLQESSQKLDLLRLALEQLLEQLPPAHPLRSRVTRELRAAVPGYPQPSGTPVKPTALTGTLQVRLLGCEQLLTAVPGRSPAAALASSPSEGWLRTKAKHQRGRGELASEVLAVLKVDNRVVGQTGWGQVAEQSWDQTFVIPLERARELEIGVHWRDWRQLCGVAFLRLEDFLDNACHQLSLSLVPQGLLFAQVTFCDPVIERRPRLQRQERIFSKRRGQDFLRASQMNLGMAAWGRLVMNLLPPCSSPSTISPPKGCPRTPTTLREASDPATPSNFLPKKTPLGEEMTPPPKPPRLYLPQEPTSEETPRTKRPHMEPRTRRGPSPPASPTRKPPRLQDFRCLAVLGRGHFGKVLLVQFKGTGKYYAIKALKKQEVLSRDEIESLYCEKRILEAVGCTGHPFLLSLLACFQTSSHACFVTEFVPGGDLMMQIHEDVFPEPQARFYVACVVLGLQFLHEKKIIYRDLKLDNLLLDAQGFLKIADFGLCKEGIGFGDRTSTFCGTPEFLAPEVLTQEAYTRAVDWWGLGVLLYEMLVGECPFPGDTEEEVFDCIVNMDAPYPGFLSVQGLEFIQKLLQKCPEKRLGAGEQDAEEIKVQPFFRTTNWQALLARTIQPPFVPTLCGPADLRYFEGEFTGLPPALTPPAPHSLLTARQQAAFRDFDFVSERFLEP
B1 was tested, and the “kinase activity of the anti-Flag immunoprecipitate toward the PKN3 substrate (GSK3α-derived fragment, SEQ ID NO:1), Western blot” value [1] was “the kinase activity is greatest for the PPRC complex than either PKN3 alone, or PKN3 and RhoC combined” and the “kinase activity of the anti-Flag immunoprecipitate toward the PKN3 substrate (GSK3α-derived fragment, SEQ ID NO:1), Western blot” value [2] was “the kinase activity is greatest for the PPRC complex than either PKN3 alone, or PKN3 and RhoC combined”.
